Values belong to the binder of their own block, whether it stands above or below them.
B5: HOIP (residues 697–1072) (domain or fragment, UniProt Q96EP0 697-1072, looked up)
chain: QECAVCGWALPHNRMQALTSCECTICPDCFRQHFTIALKEKHITDMVCPACGRPDLTDDTQLLSYFSTLDIQLRESLEPDAYALFHKKLTEGVLMRDPKFLWCAQCSFGFIYEREQLEATCPQCHQTFCVRCKRQWEEQHRGRSCEDFQNWKRMNDPEYQAQGLAMYLQENGIDCPKCKFSYALARGGCMHFHCTQCRHQFCSGCYNAFYAKNKCPEPNCRVKKSLHGHHPRDCLFYLRDWTALRLQKLLQDNNVMFNTEPPAGARAVPGGGCRVIEQKEVPNGLRDEACGKETPAGYAGLCQAHYKEYLVSLINAHSLDPATLYEVEELETATERYLHVRPQPLAGEDPPAYQARLLQKLTEEVPLGQSIPRRRK
notes: also called RING1-IBR-RING2-LDD; HOIP RBR-LDD; source: E. coli BL21 (DE3), purified (glutathione resin, SEC)
B6: STK4 (residues 1–487) K59R (enzyme, human, UniProt Q13043 1-487, looked up)
chain: METVQLRNPPRRQLKKLDEDSLTKQPEEVFDVLEKLGEGSYGSVYKAIHKETGQIVAIRQVPVESDLQEIIKEISIMQQCDSPHVVKYYGSYFKNTDLWIVMEYCGAGSVSDIIRLRNKTLTEDEIATILQSTLKGLEYLHFMRKIHRDIKAGNILLNTEGHAKLADFGVAGQLTDTMAKRNTVIGTPFWMAPEVIQEIGYNCVADIWSLGITAIEMAEGKPPYADIHPMRAIFMIPTNPPPTFRKPELWSDNFTDFVKQCLVKSPEQRATATQLLQHPFVRSAKGVSILRDLINEAMDVKLKRQESQQREVDQDDEENSEEDEMDSGTMVRAVGDEMGTVRVASTMTDGANTMIEHDDTLPSQLGTMVINAEDEEEEGTMKRRDETMQPAKPSFLEYFEQKEKENQINSFGKSVPGPLKNSSDWKIPQDGDYEFLKSWTVEDLQKRLLALDPMMEQEIEEIRQKYQSKRQPILDAIEAKKRRQQNF
notes: The tag could be cut by HRV 3C protease 'if desired'; also called kinase-dead full-length STK4; MST1; source: E. coli BL21 (DE3), purified (Ni-NTA, SEC)

Key:
HOIP (residues 697–1072) = target: B5; test: SEC; each protein alone and the mixture at matched concentrations on Superdex 200 Increase 10/300 GL or Superdex 75 Increase 10/300 GL; a forward shift or increase of the peak read qualitatively; fractions on SDS-PAGE (Fig. 1c: 20 μM HOIP RING2-LDD, 30 μM STK4 KD, Superdex 75 Increase); conditions: both partners purified
[1] = target: the molecule itself; test: AUC; sedimentation velocity, 42,000 rpm, 20 °C, c(s) distribution (SEDFIT); mixtures of HOIP RING2-LDD with STK4 KD at molar ratios 1:1 or 1:5
M1-8Ub = target: T1, M1-8Ub (UniProt P0CG48 1-76; P0CG48 1-76; P0CG48 1-76; P0CG48 1-76; P0CG48 1-76; P0CG48 1-76; …); test: SEC; each protein alone and the mixture at matched concentrations on Superdex 200 Increase 10/300 GL or Superdex 75 Increase 10/300 GL; a forward shift or increase of the peak read qualitatively; fractions on SDS-PAGE (Fig. 1c: 20 μM HOIP RING2-LDD, 30 μM STK4 KD, Superdex 75 Increase); conditions: both partners purified
T1 construct: ubiquitin, unit 1 of 8, units joined head to tail by peptide bonds (M1-linked); ubiquitin, unit 2 of 8; ubiquitin, unit 3 of 8; ubiquitin, unit 4 of 8; ubiquitin, unit 5 of 8; ubiquitin, unit 6 of 8; ubiquitin, unit 7 of 8; ubiquitin, unit 8 of 8; also called linear octa-ubiquitin; polyubiquitin chain; source: E. coli BL21 (DE3), purified

linear di-Ub (M1-2Ub) = target: T2, linear di-Ub (M1-2Ub) (UniProt P0CG48 1-76; P0CG48 1-76); test: as above; conditions: both partners purified
T2 construct: ubiquitin, unit 1 of 2, units joined head to tail by peptide bonds (M1-linked); ubiquitin, unit 2 of 2; source: E. coli BL21 (DE3), purified

linear tetra-Ub (M1-4Ub) = target: T3, linear tetra-Ub (M1-4Ub) (UniProt P0CG48 1-76; P0CG48 1-76; P0CG48 1-76; P0CG48 1-76); test: as above; conditions: both partners purified
T3 construct: ubiquitin, unit 1 of 4, units joined head to tail by peptide bonds (M1-linked); ubiquitin, unit 2 of 4; ubiquitin, unit 3 of 4; ubiquitin, unit 4 of 4; source: E. coli BL21 (DE3), purified

[2] = target: B6; test: ITC; MicroCal PEAQ-ITC, 25 °C; 20 mM Tris-HCl pH 7.5, 100 mM NaCl, 1 mM DTT; ~50 μM in the cell, ~500 μM in the syringe; one-site binding model; conditions: both partners purified
HOIP (residues 480–1072) = target: T4, HOIP (residues 480–1072) (UniProt Q96EP0 480-1072); test: SEC; each protein alone and the mixture at matched concentrations on Superdex 200 Increase 10/300 GL or Superdex 75 Increase 10/300 GL; a forward shift or increase of the peak read qualitatively; fractions on SDS-PAGE (Fig. 1c: 20 μM HOIP RING2-LDD, 30 μM STK4 KD, Superdex 75 Increase); conditions: both partners purified
T4 construct: source: E. coli BL21 (DE3), purified (glutathione resin, SEC)
T4 sequence (looked up): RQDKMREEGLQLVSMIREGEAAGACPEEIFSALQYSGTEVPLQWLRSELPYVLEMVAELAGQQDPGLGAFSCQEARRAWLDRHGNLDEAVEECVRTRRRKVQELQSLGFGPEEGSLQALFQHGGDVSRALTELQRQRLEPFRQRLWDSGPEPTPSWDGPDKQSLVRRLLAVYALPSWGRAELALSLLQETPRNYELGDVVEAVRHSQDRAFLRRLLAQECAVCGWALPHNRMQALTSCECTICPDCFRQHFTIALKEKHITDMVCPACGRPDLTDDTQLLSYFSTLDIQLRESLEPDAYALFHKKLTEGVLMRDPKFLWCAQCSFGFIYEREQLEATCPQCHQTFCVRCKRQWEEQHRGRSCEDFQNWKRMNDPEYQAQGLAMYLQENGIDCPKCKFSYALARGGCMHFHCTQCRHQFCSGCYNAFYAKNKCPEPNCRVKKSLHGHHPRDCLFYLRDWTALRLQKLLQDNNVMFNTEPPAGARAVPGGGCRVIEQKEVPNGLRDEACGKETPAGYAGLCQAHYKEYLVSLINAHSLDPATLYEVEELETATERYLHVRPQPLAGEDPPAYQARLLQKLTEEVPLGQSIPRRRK

UBE2L3 = target: T5, UBE2L3 (human, UniProt P68036 1-154); test: as above; conditions: both partners purified
T5 construct: UBE2L3 (E2), human; source: E. coli, purified
T5 sequence (P68036 whole entry): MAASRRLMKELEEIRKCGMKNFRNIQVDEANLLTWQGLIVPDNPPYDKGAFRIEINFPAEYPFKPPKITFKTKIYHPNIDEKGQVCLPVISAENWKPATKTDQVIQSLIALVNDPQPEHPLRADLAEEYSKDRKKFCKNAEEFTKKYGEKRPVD

B2: STK4 (residues 11–326) K59R (domain or fragment, human, UniProt Q13043 11-326, looked up)
chain: RRQLKKLDEDSLTKQPEEVFDVLEKLGEGSYGSVYKAIHKETGQIVAIRQVPVESDLQEIIKEISIMQQCDSPHVVKYYGSYFKNTDLWIVMEYCGAGSVSDIIRLRNKTLTEDEIATILQSTLKGLEYLHFMRKIHRDIKAGNILLNTEGHAKLADFGVAGQLTDTMAKRNTVIGTPFWMAPEVIQEIGYNCVADIWSLGITAIEMAEGKPPYADIHPMRAIFMIPTNPPPTFRKPELWSDNFTDFVKQCLVKSPEQRATATQLLQHPFVRSAKGVSILRDLINEAMDVKLKRQESQQREVDQDDEENSEEDEMD
notes: Monomer-dimer equilibrium in solution; dimer in the crystal; also called STK4 KD; source: E. coli BL21 (DE3), purified (Ni-NTA, SEC)
binding result [1]: binds

Binder: B5
Kd [2]: ~102 µM

Binder: B6
binding result (HOIP (residues 480–1072)): binds

Further lines, results first:

binding result (HOIP (residues 697–1072)): binds
B1: STK4 (residues 1–326) K59R (domain or fragment, human, UniProt Q13043 1-326, looked up)
chain: METVQLRNPPRRQLKKLDEDSLTKQPEEVFDVLEKLGEGSYGSVYKAIHKETGQIVAIRQVPVESDLQEIIKEISIMQQCDSPHVVKYYGSYFKNTDLWIVMEYCGAGSVSDIIRLRNKTLTEDEIATILQSTLKGLEYLHFMRKIHRDIKAGNILLNTEGHAKLADFGVAGQLTDTMAKRNTVIGTPFWMAPEVIQEIGYNCVADIWSLGITAIEMAEGKPPYADIHPMRAIFMIPTNPPPTFRKPELWSDNFTDFVKQCLVKSPEQRATATQLLQHPFVRSAKGVSILRDLINEAMDVKLKRQESQQREVDQDDEENSEEDEMD
notes: also called KD; source: E. coli BL21 (DE3), purified (Ni-NTA, SEC)

binding result (M1-8Ub): binds
B3: HOIP (residues 697–852) (domain or fragment, UniProt Q96EP0 697-852, looked up)
chain: QECAVCGWALPHNRMQALTSCECTICPDCFRQHFTIALKEKHITDMVCPACGRPDLTDDTQLLSYFSTLDIQLRESLEPDAYALFHKKLTEGVLMRDPKFLWCAQCSFGFIYEREQLEATCPQCHQTFCVRCKRQWEEQHRGRSCEDFQNWKRMND
notes: The limits are printed for the M1-8Ub experiment; for the STK4 experiment the text says only 'the RING1-IBR region of HOIP'; also called HOIP RING1-IBR; RING1-IBR region; source: E. coli BL21 (DE3), purified (glutathione resin, SEC)

binding result (linear di-Ub (M1-2Ub)): binds
binding result (linear tetra-Ub (M1-4Ub)): binds
B4: HOIP (residues 697–1072) S1066E (domain or fragment, UniProt Q96EP0 697-1072, looked up)
chain: QECAVCGWALPHNRMQALTSCECTICPDCFRQHFTIALKEKHITDMVCPACGRPDLTDDTQLLSYFSTLDIQLRESLEPDAYALFHKKLTEGVLMRDPKFLWCAQCSFGFIYEREQLEATCPQCHQTFCVRCKRQWEEQHRGRSCEDFQNWKRMNDPEYQAQGLAMYLQENGIDCPKCKFSYALARGGCMHFHCTQCRHQFCSGCYNAFYAKNKCPEPNCRVKKSLHGHHPRDCLFYLRDWTALRLQKLLQDNNVMFNTEPPAGARAVPGGGCRVIEQKEVPNGLRDEACGKETPAGYAGLCQAHYKEYLVSLINAHSLDPATLYEVEELETATERYLHVRPQPLAGEDPPAYQARLLQKLTEEVPLGQEIPRRRK
notes: also called phosphomimic S1066E mutant; source: E. coli BL21 (DE3), purified

binding result (UBE2L3): binds
B7: HOIP RING1 (residues 697–793) T731A (domain or fragment, UniProt Q96EP0 697-793, looked up)
chain: QECAVCGWALPHNRMQALTSCECTICPDCFRQHFAIALKEKHITDMVCPACGRPDLTDDTQLLSYFSTLDIQLRESLEPDAYALFHKKLTEGVLMRD
notes: source: E. coli BL21 (DE3), purified

Source: publication PMC12441119 (Cell Discovery, 2025)
